Assay [1] addresses T1, His-tagged human EGFR (Sino Biological) (human, UniProt P00533 25-645).
T1 construct: also called His-tagged EGFR
Put plainly: SPR (BIAcore T200), mAb^2 captured on anti-human Fab chip, His-tagged human EGFR as analyte, 1:1 fit. (In general: In SPR one partner is held on a chip, and binding of the other changes the refractive index at the surface.)

Assay [2] deals with T2, cell surface EGFR on human cancer cell lines (A431NS, MDA-MB-468, U87MG) (human, UniProt P00533 25-1210).
T2 construct: whole, on cells; The cell line of each entry is named under assay; also called EGFR on A431NS cells; EGFR on MDA-MB-468 cells
Put plainly: flow cytometry, blocking of biotinylated EGF binding to MDA-MB-468 cells. (In general: A flow cytometer gives signals particle by particle.)

Assay [3] has as its target T3, cell surface EGFR on HCC827 cells (E746-A750 deletion) (UniProt P00533 25-1210).
T3 construct: whole, on cells; Residues E746-A750 are deleted; a deletion cannot be written as a substitution
Nature of the assay: flow cytometry on HCC827 cells.

Assay [4] has as its target T4, cell surface EGFR on NCI-H1975 cells (mutated EGFR L858R and T790M) (UniProt P00533 25-1210, limits assumed).
T4 construct: whole, on cells
Put plainly: flow cytometry on NCI-H1975 cells.

For orientation: Kd means the free concentration of one partner at which half of the binding sites on the other are occupied at equilibrium, for simple one-to-one binding. For orientation: IC50 means the concentration that inhibits the measured activity by half. A low value points to higher potency. One may read the EC50 as the concentration that produces a half-maximal response. Lower therefore signals higher potency in that assay.

B1: mAb^2 FI/FS1-60 (bispecific antibody, human IgG1, kappa)
heavy: QVQLVQPGAEVKKPGTSVKLSCKASGYTFTTYWMHWVRQAPGQGLEWIGEINPTNGHTNYNQKFQGRATLTVDKSTSTAYMELSSLRSEDTAVYYCARNYVGSIFDYWGQGTLLTVSSASTKGPSVFPLAPSSKSTSGGTAALGCLVKDYFPEPVTVSWNSGALTSGVHTFPAVLQSSGLYSLSSVVTVPSSSLGTQTYICNVNHKPSNTKVDKRVEPKSCDKTHTCPPCPAPELLGGPSVFLFPPKPKDTLMISRTPEVTCVVVDVSHEDPEVKFNWYVDGVEVHNAKTKPREEQYNSTYRVVSVLTVLHQDWLNGKEYKCKVSNKALPAPIEKTISKAKGQPREPQVYTLPPSRDELDEGGPVSLTCLVKGFYPSDIAVEWESTYGPENNYKTTPPVLDSDGSFFLYSRLTVSHWRWYSGNVFSCSVMHEALHNHYTQKSLSLSPG
light: DIVMTQSPDSLAMSLGERVTLNCKASENVVSYVSWYQQKPGQSPKLLIYGASNRESGVPDRFSGSGSATDFTLTISSVQAEDVADYHCGQSYNYPYTFGQGTKLEIKRTVAAPSVFIFPPSDEQLKSGTASVVCLLNNFYPREAKVQWKVDNALQSGNSQESVTEQDSKDSTYSLSSTLTLSKADYEKHKVYACEVTHQGLSSPVTKSFNRGEC
The molecule B1 had a Kd in assay [1] of 3.5 nM. The molecule also displayed a half-inhibitory concentration (IC50) in assay [2] of 0.71 nM.

B2: mAb^2 RI/FS1-60 (bispecific antibody, human IgG2, kappa)
heavy: QVQLQESGPGLVKPSETLSLTCTVSGGSISIYYWSWIRQPPGKGLEWIGYVYYSGSTNYNPSLKSRVTISVDTSKNQFSLKLNSVTAADTAVYYCARGGYDFWSGYFDYWGQGTLVTVSSASTKGPSVFPLAPCSRSTSESTAALGCLVKDYFPEPVTVSWNSGALTSGVHTFPAVLQSSGLYSLSSVVTVPSSNFGTQTYTCNVDHKPSNTKVDKTVERKCCVECPPCPAPPVAGPSVFLFPPKPKDTLMISRTPEVTCVVVDVSHEDPEVQFNWYVDGVEVHNAKTKPREEQFNSTFRVVSVLTVVHQDWLNGKEYKCKVSNKGLPAPIEKTISKTKGQPREPQVYTLPPSRDELDEGGPVSLTCLVKGFYPSDIAVEWESTYGPENNYKTTPPVLDSDGSFFLYSRLTVSHWRWYSGNVFSCSVMHEALHNHYTQKSLSLSPG
light: not shown
B2 came in with a dissociation constant Kd in assay [1] of 3.6 nM. Further, the 50% inhibitory concentration (IC50) in assay [2] is 0.45 nM.

B3: mAb^2 RI/FS1-65 (bispecific antibody, human IgG2, kappa)
heavy: QVQLQESGPGLVKPSETLSLTCTVSGGSISIYYWSWIRQPPGKGLEWIGYVYYSGSTNYNPSLKSRVTISVDTSKNQFSLKLNSVTAADTAVYYCARGGYDFWSGYFDYWGQGTLVTVSSASTKGPSVFPLAPCSRSTSESTAALGCLVKDYFPEPVTVSWNSGALTSGVHTFPAVLQSSGLYSLSSVVTVPSSNFGTQTYTCNVDHKPSNTKVDKTVERKCCVECPPCPAPPVAGPSVFLFPPKPKDTLMISRTPEVTCVVVDVSHEDPEVQFNWYVDGVEVHNAKTKPREEQFNSTFRVVSVLTVVHQDWLNGKEYKCKVSNKGLPAPIEKTISKTKGQPREPQVYTLPPSRDELDEGGPVSLTCLVKGFYPSDIAVEWESTYGPENNYKTTPPVLDSDGSFFLYSKLTVSYWRWVKGNVFSCSVMHEALHNHYTQKSLSLSPG
light: not shown
B3: binding in assay [1] was characterised by a dissociation constant (Kd) of 1.8 nM. For the same molecule, the 50% effective concentration (EC50) in assay [3] was found to be 3.56 nM; in assay [4], 2.16 nM.

For the origin of these results see patent US20190202920A1 (F STAR BETA, published 2019).
